# B1: IKK-α: IKK-α protein, amino acid sequence SEQ ID NO: 24, expressed from plasmid; apoptosis enhancer (protein, listed as Homo sapiens)
# chain: MERPPGLRPGAGGPWEMRERLGTGGFGNVCLYQHRELDLKIAIKSCRLELSTKNRERWCHEIQIMKKLNHANVVKACDVPEELNILIHDVPLLAMEYCSGGDLRKLLNKPENCCGLKESQILSLLSDIGSGIRYLHENKIIHRDLKPENIVLQDVGGKIIHKIIDLGYAKDVDQGSLCTSFVGTLQYLAPELFENKPYTATVDYWSFGTMVFECIAGYRPFLHHLQPFTWHEKIKKKDPKCIFACEEMSGEVRFSSHLPQPNSLCSLIVEPMENWLQLMLNWDPQQRGGPVDLTLKQPRCFVLMDHILNLKIVHILNMTSAKIISFLLPPDESLHSLQSRIERETGINTGSQELLSETGISLDPRKPASQCVLDGVRGCDSYMVYLFDKSKTVYEGPFASRSLSDCVNYIVQDSKIQLPIIQLRKVWAEAVHYVSGLKEDYSRLFQGQRAAMLSLLRYNANLTKMKNTLISASQQLKAKLEFFHKSIQLDLERYSEQMTYGISSEKMLKAWKEMEEKAIHYAEVGVIGYLEDQIMSLHAEIMELQKSPYGRRQGDLMESLEQRAIDLYKQLKHRPSDHSYSDSTEMVKIIVHTVQSQDRVLKELFGHLSKLLGCKQKIIDLLPKVEVALSNIKEADNTVMFMQGKRQKEIWHLLKIACTQSSARSLVGSSLEGAVTPQTSAWLPPTSAEHDHSLSCVVTPQDGETSAQMIEENLNCLGHLSTIIHEANEEQGNSMMNLDWSWLTE
# Key:
# p73 [1] = target: T1, p73 (Homo sapiens, UniProt O15350); experiment: p73 protein level (stabilization) by immunoblot in cotransfected COS7 cells; format: cell-based; settings: COS7 cotransfection (FIG. 14, 15, 29)
# T1 construct: expressed in transfected cells; host or cells: COS7
# T1 sequence (O15350 1-636): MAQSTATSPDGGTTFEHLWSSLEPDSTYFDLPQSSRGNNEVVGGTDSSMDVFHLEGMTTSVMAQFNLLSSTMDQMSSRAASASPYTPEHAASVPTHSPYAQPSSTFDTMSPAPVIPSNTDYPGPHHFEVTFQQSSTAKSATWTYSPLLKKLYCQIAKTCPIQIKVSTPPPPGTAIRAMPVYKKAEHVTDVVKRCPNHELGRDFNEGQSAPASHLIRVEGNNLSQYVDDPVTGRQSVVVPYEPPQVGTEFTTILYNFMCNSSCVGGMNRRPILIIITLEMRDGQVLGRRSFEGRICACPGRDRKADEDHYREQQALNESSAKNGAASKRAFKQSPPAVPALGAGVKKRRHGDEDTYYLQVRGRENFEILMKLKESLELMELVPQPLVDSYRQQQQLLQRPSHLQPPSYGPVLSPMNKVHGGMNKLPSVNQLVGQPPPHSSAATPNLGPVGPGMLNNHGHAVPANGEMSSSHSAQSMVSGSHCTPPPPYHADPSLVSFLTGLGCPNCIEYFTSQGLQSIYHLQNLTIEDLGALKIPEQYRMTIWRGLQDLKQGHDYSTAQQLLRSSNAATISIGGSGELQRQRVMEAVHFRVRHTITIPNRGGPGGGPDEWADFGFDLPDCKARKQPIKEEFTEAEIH
# Description: (§1) Cells were transiently transfected with a total of 2 μg of expression plasmids. After 48 hours of the transfection, the cells were washed with ice-cold PBS and suspended in lysis buffer (pH 8.0; which contained 25 mM Tris-Cl, 137 mM sodium chloride, 1% Triton X-100, 1 mM phenylmethylsulfonyl fluoride (PMSF), and protease inhibitor mix (Roche Molecular Biochemicals)), followed by brief sonication. After centrifugation at 15000 rpm for 10 minutes, the supernatant was collected and assayed for protein concentrations by the Bradford assay (Bio-Rad). Equal amounts of lysates (protein amount: 50 μg) from the whole cells were denatured by boiling in Laemmli SDS-sample buffer, then separated on 10% SDS-polyacrylamide gel (SDS-PAGE), and transferred at room temperature for 1 hour to polyvinylidene difluoride (PVDF) membranes (Immobilon-P; Millipore) in Tris-glycine buffer containing 10% methanol. The membranes were blocked at room temperature for 1 hour with Tris-buffered saline (TBS-T) containing 5% skim milk and 0.1% Tween 20.
# (§2) As previously reported, some protein kinases (e.g., c-Abl and PKCδ) that interact with p73 can stabilize p73. To confirm whether IKK-α influenced the stabilization of p73, COS7 cells were transfected with a constant amount of HA-p73α expression plasmid together with or without varying amounts of IKK-α expression plasmids and examined for HA-p73α protein levels. […] Next, whether IKK-β influenced the stabilization of p73 and p53 was investigated by transient transfection.
# p73 [2] = target: T2, p73 (Homo sapiens, UniProt O15350); experiment: as above; format: cell-based; settings: COS7 cotransfection
# T2 construct: expressed in transfected cells; host or cells: COS7
# T2 sequence (O15350 1-499 isoform O15350-2): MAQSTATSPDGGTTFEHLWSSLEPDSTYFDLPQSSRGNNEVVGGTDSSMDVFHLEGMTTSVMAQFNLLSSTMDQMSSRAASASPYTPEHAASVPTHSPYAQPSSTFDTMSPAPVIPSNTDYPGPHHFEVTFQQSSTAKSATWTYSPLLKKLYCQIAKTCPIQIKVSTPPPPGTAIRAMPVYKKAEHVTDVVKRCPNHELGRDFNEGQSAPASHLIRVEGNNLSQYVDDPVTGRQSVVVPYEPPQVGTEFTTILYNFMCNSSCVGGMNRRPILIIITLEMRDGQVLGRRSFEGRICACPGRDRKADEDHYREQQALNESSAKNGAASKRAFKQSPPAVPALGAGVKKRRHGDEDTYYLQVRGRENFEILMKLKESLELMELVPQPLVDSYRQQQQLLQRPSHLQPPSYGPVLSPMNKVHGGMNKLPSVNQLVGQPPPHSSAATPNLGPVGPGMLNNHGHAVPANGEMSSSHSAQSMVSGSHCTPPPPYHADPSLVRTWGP
# Description: as §1, §2
# p73 [3] = experiment: Luciferase reporter assay, p73-dependent transcriptional activation in H1299 cells; format: cell-based, human
# Description: H1299 cells deficient in p53 were seeded at a density of 5×10^4 cells/well onto a 12-well tissue culture dish and transiently transfected with 100 ng of luciferase reporter construct (which carried a p53/p73-responsive element derived from a p21^WAF1, Bax, or MDM2 promoter), 10 ng of pRL-TK Renilla luciferase cDNA, and 25 ng of given expression plasmid (p53, HA-p73α, or HA-p73β) together with or without varying amounts of IKK-α or FLAG-IKK-β expression plasmids. The total amount of DNA per transfection was kept constant (510 ng) with a pcDNA3 empty plasmid. After 48 hours from the transfection, the cells were washed twice with ice-cold PBS and suspended in passive lysis buffer (Promega). Both firefly and Renilla luciferase activities were assayed by use of dual-luciferase reporter assay system (Promega) according to the instruction. […] intensity was measured with TD-20 luminometer (Turner Design). The firefly luciferase signal was normalized based on the Renilla luciferase signal. Results obtained from at least 3 transfections were indicated by mean value±standard deviation.
# To explore the functional implication of interaction between IKK-α and p73, the effect of IKK-α on p73-mediated transcriptional activation was first examined. H1299 cells deficient in p53 were transfected with a HA-p73α or HA-p73β expression plasmid and a luciferase reporter construct under the control of a p21^WAF1, Bax, or MDM2 promoter together with or without varying amounts of IKK-α expression plasmids. […] By contrast, increase in p53-responsive reporter gene activity was not induced by IKK-α (FIG. 22). To examine the specificity of p73-dependent transcriptional activation mediated by IKK-α, whether IKK-β enhanced p73 transcriptional activity to p53/p73-responsive promoters was confirmed.
molecule,measurement,setting,value
B1,amount of HA-p73α,p73 [1],remarkably increased the amount of HA-p73α
same,stabilization of HA-p73β,p73 [2],stabilized by IKK-α at a degree lower than that of HA-p73α
same,luciferase activity without p73,"p73 [3]; H1299, IKK-α alone",almost no effect on luciferase activity
same,"p73-dependent transcriptional activation of p21WAF1, Bax, MDM2 promoter reporters","p73 [3]; H1299, coexpression with HA-p73α or HA-p73β (FIG. 20, 21, 23)",Remarkable increase in p73-dependent transcriptional activation was dose-dependently observed
same,induction of endogenous p21WAF1 mediated by p73α,"p73 [3]; H1299, immunoblot (FIG. 24)",remarkably up-regulated

# Source: patent US7618787B2, “Method of screening compound capable of accelerating or inhibiting apoptosis, apoptosis accelarator and apoptosis inhibitor” (Hisamitsu Pharmaceutical Co., Inc., priority 2004, dated 2009)
